Tests used:
Test in all cases: cell-based or functional assay
P-2NLP-P = biological target: P-2NLP-P
P-1NLP-P = biological target: P-1NLP-P
P-cNsp1-P = biological target: P-cNsp1-P
P-cNsp1-P, sequence (chain, as listed by the source): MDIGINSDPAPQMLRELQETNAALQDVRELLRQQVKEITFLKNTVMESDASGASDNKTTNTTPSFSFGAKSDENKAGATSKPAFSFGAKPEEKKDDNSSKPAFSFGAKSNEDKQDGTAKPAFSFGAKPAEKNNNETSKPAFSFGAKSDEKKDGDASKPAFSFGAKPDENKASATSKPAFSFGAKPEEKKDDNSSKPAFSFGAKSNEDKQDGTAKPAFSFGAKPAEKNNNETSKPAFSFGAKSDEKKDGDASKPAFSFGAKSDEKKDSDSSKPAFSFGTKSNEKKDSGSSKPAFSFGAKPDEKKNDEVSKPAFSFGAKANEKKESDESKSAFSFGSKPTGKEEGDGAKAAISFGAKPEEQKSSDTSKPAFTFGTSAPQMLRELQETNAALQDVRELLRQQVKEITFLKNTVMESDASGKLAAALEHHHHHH

P-2NLP-P, sequence (chain, as listed by the source): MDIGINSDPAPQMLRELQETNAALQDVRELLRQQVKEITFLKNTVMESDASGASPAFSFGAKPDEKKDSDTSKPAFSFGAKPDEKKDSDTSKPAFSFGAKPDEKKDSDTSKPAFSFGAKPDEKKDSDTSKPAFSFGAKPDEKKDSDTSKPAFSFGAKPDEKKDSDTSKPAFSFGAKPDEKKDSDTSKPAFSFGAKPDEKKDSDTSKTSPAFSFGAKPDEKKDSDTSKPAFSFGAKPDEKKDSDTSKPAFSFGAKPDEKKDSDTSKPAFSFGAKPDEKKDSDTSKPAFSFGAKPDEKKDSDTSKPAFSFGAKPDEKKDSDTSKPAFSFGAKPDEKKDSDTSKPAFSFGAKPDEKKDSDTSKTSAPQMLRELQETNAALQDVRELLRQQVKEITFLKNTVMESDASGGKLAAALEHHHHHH
P-1NLP-P, sequence (chain, as listed by the source): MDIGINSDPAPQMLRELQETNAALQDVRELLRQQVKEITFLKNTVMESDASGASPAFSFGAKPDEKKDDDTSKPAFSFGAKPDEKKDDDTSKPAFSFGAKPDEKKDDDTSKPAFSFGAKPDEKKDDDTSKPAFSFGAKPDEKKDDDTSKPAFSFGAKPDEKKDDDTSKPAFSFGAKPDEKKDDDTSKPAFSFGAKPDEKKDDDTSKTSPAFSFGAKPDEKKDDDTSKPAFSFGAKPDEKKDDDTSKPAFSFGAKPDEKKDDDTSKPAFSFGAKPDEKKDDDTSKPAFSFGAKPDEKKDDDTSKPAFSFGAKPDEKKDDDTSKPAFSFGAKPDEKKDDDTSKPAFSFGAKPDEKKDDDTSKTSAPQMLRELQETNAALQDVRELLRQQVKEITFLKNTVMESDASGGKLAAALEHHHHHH

absorption of cargo-importin β complexes by the hydrogel relative to inert molecules in an hour (capillary transport assay, 20 w/v % gel) (P-2NLP-P): 3.8 times more than inert molecules
accumulated green fluorescence intensity compared to the intensity without importin β, relative to the P-1NLP-P gel (P-2NLP-P): ~2 fold of P-1NLP-P gel
accumulation of cargo-carrier complexes in the gel relative to MBP-mCherry (no IBB domain) over three hours, 10 w/v % gel (P-2NLP-P): 5.2 times more than MBP-mCherry
accumulation of cargo-carrier complexes in the gel relative to MBP-mCherry (no IBB domain) over three hours, 20 w/v % gel (P-2NLP-P): 10.2 times more than MBP-mCherry
accumulation of cargo-carrier complexes relative to MBP-mCherry (without the IBB domain) over an hour, 20 w/v % gel (P-2NLP-P): 5.3 times more than MBP-mCherry
absorption of cargo-importin β complexes by the hydrogel relative to inert molecules in an hour (capillary transport assay, 20 w/v % gel) (P-1NLP-P): 2.3 times more than inert molecules
accumulation of cargo-carrier complexes relative to MBP-mCherry (without the IBB domain) over an hour, 20 w/v % gel (P-1NLP-P): 3 times more than MBP-mCherry
absorption of cargo-importin β complexes by the hydrogel relative to inert molecules in an hour (capillary transport assay, 20 w/v % gel) (P-cNsp1-P): 3.9 times more than inert molecules
B1: importin β (receptor, UniProt Q06142 1-861, looked up, not shown: small tags and cut ends)
chain: MSTAEFAQLLENSILSPDQNIRLTSETQLKKLSNDNFLQFAGLSSQVLIDENTKLEGRILAALTLKNELVSKDSVKTQQFAQRWITQVSPEAKNQIKTNALTALVSIEPRIANAAAQLIAAIADIELPHGAWPELMKIMVDNTGAEQPENVKRASLLALGYMCESADPQSQALVSSSNNILIAIVQGAQSTETSKAVRLAALNALADSLIFIKNNMEREGERNYLMQVVCEATQAEDIEVQAAAFGCLCKIMSLYYTFMKPYMEQALYALTIATMKSPNDKVASMTVEFWSTICEEEIDIAYELAQFPQSPLQSYNFALSSIKDVVPNLLNLLTRQNEDPEDDDWNVSMSAGACLQLFAQNCGNHILEPVLEFVEQNITADNWRNREAAVMAFGSIMDGPDKVQRTYYVHQALPSILNLMNDQSLQVKETTAWCIGRIADSVAESIDPQQHLPGVVQACLIGLQDHPKVATNCSWTIINLVEQLAEATPSPIYNFYPALVDGLIGAANRIDNEFNARASAFSALTTMVEYATDTVAETSASISTFVMDKLGQTMSVDENQLTLEDAQSLQELQSNILTVLAAVIRKSPSSVEPVADMLMGLFFRLLEKKDSAFIEDDVFYAISALAASLGKGFEKYLETFSPYLLKALNQVDSPVSITAVGFIADISNSLEEDFRRYSDAMMNVLAQMISNPNARRELKPAVLSVFGDIASNIGADFIPYLNDIMALCVAAQNTKPENGTLEALDYQIKVLEAVLDAYVGIVAGLHDKPEALFPYVGTIFQFIAQVAEDPQLYSEDATSRAAVGLIGDIAAMFPDGSIKQFYGQDWVIDYIKRTRSGQLFSQATKDTARWAREQQKRQLSL
